# Results published in the supplement of paper PMC10724198.
# ± gives the standard deviation of the averaged measurements.
# Test system: Saccharomyces cerevisiae
# Assay: protein stability index of tFT-peptide fusion (C-terminal peptide) (PSI (0-1 scale)); higher = more stable (slower turnover)
# Conditions: genetic background: wild type; temperature: 30 C
# Protocol: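 Multiplexed protein stability (MPS) profiling in S. cerevisiae. Random 12-aa peptides (tFT-X12 library) are fused to the C-terminus of a sfGFP-mCherry tandem fluorescent timer, after mCherry and a GGGS linker. Cells are FACS-sorted into 8 mCherry/sfGFP bins and deep-sequenced. The protein stability index (PSI) is the read-weighted bin average, scaled from 0 (unstable) to 1 (stable). Only peptides with >10 reads are reported; cells were grown at 30 °C in SC-His with glucose.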
# 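Also: PSI is a weighted mean of sequencing reads over stability bins, variants kept only with over 10 reads, mCherry proximal and sfGFP distal, peptide attached via GGGS linker.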
row,Sequence,protein stability index
1,AAAWWGPRNRGL,0.6749 ± 0.0056
2,AAGLNSWLRERW,0.805 ± 0.032
3,AAIQNRPIQSNP,0.672 ± 0.027
4,AALLQAGMPRTR,0.692 ± 0.013
5,AAPPHLTSHPPL,0.811 ± 0.19
6,AARRVARTTSFC,0.6728 ± 0.0019
7,AARSCRCSSLIG,0.774 ± 0.0035
8,AAVRCVAEGGAP,0.637 ± 0.036
9,ACDVPSERAVSG,0.628 ± 0.024
10,ACFFNCFISLPF,0.584 ± 0.048
11,ACGDRGGLCSEG,0.616 ± 0.066
12,ADCLSCRVLIVM,0.484 ± 0.075
13,ADGLSRDKALIV,0.598 ± 0.0074
14,ADLAFAGGPYYG,0.69 ± 0.067
15,ADMTRSRYMGRS,0.692 ± 0.033
16,ADQAPVLTVWLP,0.669 ± 0.023
17,AELALGIESYLP,0.683 ± 0.083
18,AEMGQDGADAGQ,0.676 ± 0.01
19,AEPSERSRNSPP,0.68 ± 0.019
20,AEVRRQEGTVGV,0.707 ± 0.036
21,AEYSTAYRLGIC,0.644 ± 0.1
22,AFCLLSSLASGF,0.759 ± 0.067
23,AFHTLSGFRRVP,0.673 ± 0.019
24,AFLMPFPSRLCV,0.5806 ± 0.0052
25,AFPGCRPFRPLH,0.709 ± 0.056

row,Sequence,protein stability index
1,AFPHDYCRFFLP,0.612 ± 0.048
2,AFPHRLTRGYDQ,0.666 ± 0.038
3,AFPSISNEVVSV,0.707 ± 0.017
4,AFRCGGVPGDFA,0.664 ± 0.022
5,AFSASLAGSGRS,0.736 ± 0.046
6,AFSGMMSVFREW,0.695 ± 0.049
7,AGAFVGAPVGGE,0.713 ± 0.026
8,AGALFRLPSVFD,0.727 ± 0.076
9,AGASCGGRPDTA,0.607 ± 0.02
10,AGCGGIWGLWVL,0.723 ± 0.05
11,AGCGGRCEAGDR,0.67 ± 0.011
12,AGFGVGALSRSG,0.673 ± 0.041
13,AGGAAIVERAMK,0.6857 ± 0.003
14,AGGDDGAPGTQS,0.644 ± 0.015
15,AGGGPDGFIRPM,0.701 ± 0.014
16,AGGKGVGRGWGL,0.698 ± 0.051
17,AGGLGSGGSRER,0.6612 ± 0.0024
18,AGGSVFSVLVDE,0.665 ± 0.0081
19,AGGWLRGWLGVG,0.673 ± 0.047
20,AGGWRGAEGCGG,0.782 ± 0.083
21,AGQNVWGAGTNE,0.712 ± 0.0079
22,AGRGGRAGGGWR,0.668 ± 0.015
23,AGRSCGRHEPPK,0.579 ± 0.098
24,AGRVCTRGVNEI,0.786 ± 0.1
25,AGSAAGGAWSGG,0.695 ± 0.019

row,Sequence,protein stability index
1,AGSLFEVECNGS,0.746 ± 0.038
2,AGSSIPLPASRA,0.705 ± 0.026
3,AGSVIPCPASRP,0.695 ± 0.029
4,AHADISPIHNLH,0.627 ± 0.0066
5,AHGASLCVPPSP,0.512 ± 0.013
6,AHKSFRMVDGNR,0.678 ± 0.066
7,AHLLFGFGAPVS,0.714 ± 0.15
8,AHPLSVSSFLSF,0.671 ± 0.0073
9,AHPPPPQLPHPH,0.7241 ± 0.0023
10,AHWFMPVSCLLV,0.838 ± 0.2
11,AIDGVREDTSVE,0.704 ± 0.18
12,AIEKKVNQTPFK,0.659 ± 0.034
13,AIERCCTSRRRR,0.701 ± 0.041
14,AIGSVWACVCCS,0.504 ± 0.095
15,AIKTVINYRDMM,0.608 ± 0.0024
16,AIRTPPTRTPPA,0.71 ± 0.049
17,AISSPVLSYATP,0.657 ± 0.0035
18,AKACHGGSTLPG,0.609 ± 0.045
19,AKKKKKTKRRKK,0.692 ± 0.07
20,AKLQQEIVWALD,0.779 ± 0.048
21,AKVKIENKHRRK,0.716 ± 0.015
22,AKWAWPAIVGGC,0.722 ± 0.053
23,ALASPGLLVFTR,0.673 ± 0.026
24,ALCGWYMGLFHL,0.646 ± 0.0042
25,ALFEDWRIGVFS,0.71 ± 0.036

row,Sequence,protein stability index
1,ALFPPPSLRPLP,0.724 ± 0.054
2,ALFTVGNRPSSL,0.701 ± 0.021
3,ALGVHGKFEWIK,0.668 ± 0.066
4,ALHPPSPPPPAP,0.7313 ± 0.0027
5,ALIGMFATVALI,0.689 ± 0.099
6,ALMHVTLAVGLL,0.579 ± 0.0027
7,ALPPPPPHPSPS,0.717 ± 0.019
8,ALPYPPRFPHCS,0.645 ± 0.019
9,ALRCRPVYHIDG,0.658 ± 0.025
10,ALRRWWCRGGRI,0.813 ± 0.024
11,ALRSGGAARVRL,0.7776 ± 0.0071
12,ALSHGPAPRTRS,0.649 ± 0.048
13,ALSLPPRLRTFY,0.663 ± 0.05
14,ALSRSCPSGAFL,0.727 ± 0.01
15,AMLLRCRQGDLI,0.675 ± 0.032
16,AMVATAYINPHE,0.712 ± 0.037
17,ANELQEIYLGET,0.6881 ± 0.006
18,ANGTLSGSPAPS,0.641 ± 0.021
19,ANKNDHNNQRQA,0.789 ± 0.09
20,ANVRTCCTSVPV,0.652 ± 0.037
21,APAPELRRSPTP,0.707 ± 0.01
22,APAPPPGVPPSR,0.702 ± 0.002
23,APASPSFPLSAP,0.673 ± 0.025
24,APCLLNTLRPSP,0.686 ± 0.033
25,APEAHYRGCPPH,0.681 ± 0.018

row,Sequence,protein stability index
1,APFPPHPPPPPS,0.707 ± 0.043
2,APFSALFPANSV,0.719 ± 0.15
3,APGPCSAPSCGA,0.67 ± 0.013
4,APGPPPLPHPPT,0.717 ± 0.022
5,APILFRICVRRL,0.541 ± 0.046
6,APIRPPVPPASP,0.716 ± 0.035
7,APLFLPPPSLFF,0.6934 ± 0.0052
8,APLLTRRLPTAH,0.785 ± 0.025
9,APLTYFKPPTPT,0.666 ± 0.11
10,APPLQLSSPPPS,0.746 ± 0.051
11,APPPAAPALSPR,0.718 ± 0.096
12,APPPAYCPPPPP,0.713 ± 0.022
13,APPPPPALPEYQ,0.685 ± 0.047
14,APPPPPDHPFPP,0.691 ± 0.08
15,APPPPPPPCAPS,0.657 ± 0.043
16,APPPPPSPRRPL,0.708 ± 0.013
17,APPPPPSRLFPP,0.672 ± 0.028
18,APPPPRPLLPSL,0.723 ± 0.047
19,APPPRLAPTLSS,0.775 ± 0.014
20,APPPSPPPPPFP,0.67 ± 0.064
21,APPPVFLPPPPP,0.778 ± 0.039
22,APPSPPPPTSHP,0.777 ± 0.051
23,APPSPRPSRPSP,0.64 ± 0.029
24,APRLFSPPEPPT,0.702 ± 0.038
25,APRLIALPPPTA,0.711 ± 0.11

row,Sequence,protein stability index
1,APRPLPPPPSPC,0.726 ± 0.027
2,APRTRPSPTLGT,0.724 ± 0.029
3,APSCRVPPLPPP,0.708 ± 0.046
4,APSELSSRPFLL,0.707 ± 0.026
5,APSFSSPPVPLF,0.698 ± 0.0085
6,APSRTPRQPPSH,0.716 ± 0.067
7,APTPPPRISAWL,0.687 ± 0.019
8,APTVPVPPSPDA,0.705 ± 0.077
9,APVRSSIALKSD,0.703 ± 0.035
10,APVWSINKTRVM,0.671 ± 0.045
11,AQSRTCPMPLPA,0.719 ± 0.025
12,AQTHGGSSLPRP,0.688 ± 0.028
13,ARAAHLASRGLP,0.689 ± 0.037
14,ARCLSFPSSSSA,0.654 ± 0.022
15,ARESGFGGVLEE,0.674 ± 0.028
16,ARFSPTLQLTPT,0.844 ± 0.13
17,ARGCRRWRVLRR,0.77 ± 0.25
18,ARGGIGTCSWGW,0.743 ± 0.074
19,ARGSTGLKLRWG,0.706 ± 0.0096
20,ARIALGLSALVL,0.641 ± 0.05
21,ARIRDSPVIKTV,0.672 ± 0.019
